Experiments:
Conditions in all cases: protein: recombinant; tags: GST; label: 5' biotin
[1] = molecular target: T1, GST-HuR-RRM1 (UniProt Q15717 20-98); assay: EMSA; EMSA: 3 mM MgCl2, 40 mM KCl, 5% glycerol, 2 mM DTT, 2 ug tRNA, 5 nM RNA, 40 min room temperature; pH not stated; 6% native acrylamide gel
[2] = molecular target: GST-HuR (UniProt Q15717 1-326); assay: EMSA; unmodified; multiple shifted bands (oligomer); EMSA: 3 mM MgCl2, 40 mM KCl, 5% glycerol, 2 mM DTT, 2 ug tRNA, 5 nM RNA, 40 min room temperature; pH not stated; 6% native acrylamide gel
GST-HuR, sequence (Q15717 whole entry): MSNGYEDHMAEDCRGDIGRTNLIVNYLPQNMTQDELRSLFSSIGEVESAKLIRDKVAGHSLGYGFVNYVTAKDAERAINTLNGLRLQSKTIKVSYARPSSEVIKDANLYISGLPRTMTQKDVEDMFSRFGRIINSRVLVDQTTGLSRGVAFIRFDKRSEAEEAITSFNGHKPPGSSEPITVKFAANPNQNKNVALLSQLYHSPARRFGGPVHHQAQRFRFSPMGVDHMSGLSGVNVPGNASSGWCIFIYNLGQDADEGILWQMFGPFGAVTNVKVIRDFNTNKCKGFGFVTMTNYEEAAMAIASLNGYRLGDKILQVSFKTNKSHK

[3] = molecular target: T1, GST-HuR-RRM1; assay: EMSA; no multiple shifted bands (Fig 4d); EMSA: 3 mM MgCl2, 40 mM KCl, 5% glycerol, 2 mM DTT, 2 ug tRNA, 5 nM RNA, 40 min room temperature; pH not stated; 6% native acrylamide gel

T1 sequence (Q15717 20-98): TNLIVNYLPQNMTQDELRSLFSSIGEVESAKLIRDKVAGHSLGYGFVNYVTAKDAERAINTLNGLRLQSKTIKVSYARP

| Binder | binding result [1] | binding result [2] | binding result [3] |
| --- | --- | --- | --- |
| AUUUAUUUAUUUAUUUAUUUAUUUA (ssRNA) [AU-rich RNA oligo (tandem ARE repeat)] | binds | binds | – |
| CUAUGUAUUUAUUUAUUUAUUAAUU (ssRNA) [Cxcl2 ARE RNA oligo] | – | binds | binds |

Source: article PMC7904744, “Poly(ADP-ribosyl)ation enhances HuR oligomerization and contributes to pro-inflammatory gene mRNA stabilization”
